Source: the RNAGym collection of RNA variant scans (doi:10.1093/molbev/msab373)

B1: Azoarcus group I ribozyme (parent)
chain: GUGCCUUGCGCCGGGAAACCACGCAAGGGAUGGUGUCAAAUUCGGCGAAACCUAAGCGCCCGCCCGGGCGUAUGGCAACGCCGAGCCAAGCUUCGGCGCCUGCGCCGAUGAAGGUGUAGAGACUAGACGGCACCCACCUAAGGCAAACGCUAUGGUGAAGGCAUAGUCCAGGGAGUGGCGAAAGUCACACAAACCGG

Variants of: B1
Assay: reverse-splicing fitness (ratio to wild type); higher = more active; in vitro selection; Mg2+ level not given
Procedure, shortened: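 An in vitro group I ribozyme library with randomized positions was T7-transcribed and gel-purified. In triplicate, 10 pmol RNA in EPPS pH 7.5 was reacted with 50 pmoles of a 30-nt RNA substrate for 1 h at 37 °C across several added MgCl2 levels (1–48 mM), then stopped with EDTA. Products were reverse transcribed from a substrate-complementary primer, PCR-amplified and sequenced (HiSeq 4000). Fitness is a variant's read proportion after selection over that before, normalised to wild type.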

Row | Variant | reverse-splicing fitness
1 | C82U A111C A120C A145U C169U | 0.0103
2 | C82U A111C A120C A145U C169G | 0.00753
3 | C82U A111C A120G A145C C150A U176G | 0.00348
4 | C82U A111C A120G A145C C150A U176A | 0.00897
5 | C82U A111C A120G A145C C150A U176C | 0.00967
6 | C82U A111C A120G A145G C150A U176C | 0.017
7 | C82U A111C A120G A145G C150A U176A | 0.0093
8 | C82U A111C A120G A145G C150A U176G | 0.00528
9 | C82U A111C A120G A145G C150U C169U U176A | 0.0152
10 | C82U A111C A120G A145G C150U C169U U176G | 0.00449
11 | C82U A111C A120G A145G C150U C169U U176C | 0.0131
12 | C82U A111C A120G A145G C150G | 0.00776
13 | C82U A111C A120G A145G C150U | 0.0115
14 | C82U A111C A120G A145G C150A | 0.00814
15 | C82U A111C A120G A145C C150G C169G U176A | 0.00836
16 | C82U A111C A120G A145C C150G C169G U176C | 0.00632
17 | C82U A111C A120G A145C C150G C169G U176G | 0.00437
18 | C82U A111C A120G A145U C169U U176G | 0.00369
19 | C82U A111C A120G A145U C169U U176A | 0.0158
20 | C82U A111C A120G A145U C169U U176C | 0.0112
21 | C82U A111C A120C A145U C169U U176G | 0.0054

Row | Variant | reverse-splicing fitness
22 | C82U A111C A120C A145U C169U U176C | 0.0145
23 | C82U A111C A120C A145U C169U U176A | 0.0127
24 | C82U A111C A120G A145U C150U C169U U176G | 0.00431
25 | C82U A111C A120G A145U C150U C169U U176C | 0.0107
26 | C82U A111C A120G A145U C150U C169U U176A | 0.0158
27 | C82U A111C A120G C150U U176G | 0.00514
28 | C82U A111C A120G C150U U176C | 0.0194
29 | C82U A111C A120G C150U U176A | 0.0106
30 | C82U A111C A120G A145G U176A | 0.0143
31 | C82U A111C A120G A145G U176G | 0.00476
32 | C82U A111C A120G A145G U176C | 0.0199
33 | C82U A111C A120G A145C C169A | 0.0073
34 | C82U A111C A120G A145C C169G | 0.00924
35 | C82U A111C A120G A145C C169U | 0.007
36 | C82U A111C A120G A145C C150U U176A | 0.00933
37 | C82U A111C A120G A145C C150U U176G | 0.00354
38 | C82U A111C A120G A145C C150U U176C | 0.00988
39 | C82U A111C A120G | 0.0151
40 | C82U A111C A120G C150A U176C | 0.0182
41 | C82U A111C A120G C150A U176G | 0.00579
42 | C82U A111C A120G C150A U176A | 0.0152

Row | Variant | reverse-splicing fitness
43 | C82U A111C A120C C150U U176A | 0.00888
44 | C82U A111C A120C C150U U176G | 0.00627
45 | C82U A111C A120C C150U U176C | 0.0168
46 | C82U A111C A120C C150A C169U U176G | 0.00677
47 | C82U A111C A120C C150A C169U U176A | 0.0178
48 | C82U A111C A120C C150A C169U U176C | 0.0181
49 | C82U A111C A120G A145C C150A C169G | 0.00682
50 | C82U A111C A120G A145C C150A C169U | 0.00688
51 | C82U A111C A120G A145C C150A C169A | 0.00641
52 | C82U A111C A120G A145G C150G C169U | 0.00832
53 | C82U A111C A120G A145G C150G C169G | 0.0068
54 | C82U A111C A120G A145G C150G C169A | 0.0087
55 | C82U A111C A120G C150A C169G U176C | 0.0202
56 | C82U A111C A120G C150A C169G U176G | 0.00479
57 | C82U A111C A120G C150A C169G U176A | 0.0168
58 | C82U A111C A120G C150A C169A U176G | 0.00529
59 | C82U A111C A120G C150A C169A U176A | 0.0163
60 | C82U A111C A120G C150A C169A U176C | 0.0186
61 | C82U A111C A120G A145G C150A C169G U176G | 0.00493
62 | C82U A111C A120G A145G C150A C169G U176C | 0.0241
63 | C82U A111C A120G A145G C150A C169G U176A | 0.0146

Row | Variant | reverse-splicing fitness
64 | C82U A111C A120G A145C C150A | 0.00617
65 | C82U A111C A120G A145C C150G | 0.007
66 | C82U A111C A120G A145C C150U | 0.00818
67 | C82U A111C A120G A145U C150U C169U | 0.00803
68 | C82U A111C A120G A145U C150U C169G | 0.00846
69 | C82U A111C A120G A145U C150U C169A | 0.00896
70 | C82U A111C A120G A145U C150G C169G U176C | 0.00446
71 | C82U A111C A120G A145U C150G C169G U176G | 0.00386
72 | C82U A111C A120G A145U C150G C169G U176A | 0.0063
73 | C82U A111C A120G A145U C150A U176C | 0.0144
74 | C82U A111C A120G A145U C150A U176A | 0.0119
75 | C82U A111C A120G A145U C150A U176G | 0.00424
76 | C82U A111C A120C C150U C169A U176A | 0.0151
77 | C82U A111C A120C C150U C169A U176G | 0.00672
78 | C82U A111C A120C C150U C169A U176C | 0.0151
79 | C82U A111C A120C C150A U176A | 0.0109
80 | C82U A111C A120C C150A U176C | 0.022
81 | C82U A111C A120C C150A U176G | 0.00688
82 | C82U A111C A120G A145G C169A | 0.0105
83 | C82U A111C A120G A145G C169G | 0.00926
84 | C82U A111C A120G A145G C169U | 0.00883
